# Source: patent US20180362628A1 (KYMAB, published 2018)
# Where a chain is given by its changes, count along the chain named.
# B1: Antibody 667 Fab (Fab, V domains shown)
# VH: QVQLVQSGAEVKKPGASVKVSCRASGYTFTNYAMHWVRQAPGQRLEWMGWINAGNGYTKYSQKFQDRVTITRDTSATTAYMELSSLRSEDTAMYYCARDSFYDILSGPVYHYYGMDVWGQGTTVTVSS
# VL: QSALTQPDSVSGSPGQSITISCTGTSNDVGIYNHVSWYQQHPGKAPKLMIYDVNKRPSGISNRFSGSKSGDTASLTISGLQAEDEADYYCCSYAGSSAWVFGGGTKLTVL
# notes: recombinant human Fab from CHO-3E7 cells, purified on nickel columns
# B2: Antibody 668 Fab (Fab, V domains shown)
# VH: QVQLVQSGAEVKKPGASVKVSCKASGFTFTDYAMHWVRQAPGQRLEWMGWINAGNGYTKYSQKFQDRLTITRDTFASTVYMELSSLRSEDTTVYYCARDGFCPSNTCSGYYGMDVWGQGTTVTVSS
# VL: QSALTQPASVSGSPGQSITISCTGTSSDVGSYNYVSWYQQHPGKAPKLMIYDVNTRPSGVSIRFSASKSGNTASLTVSGLQAEDEAVYYCSSYAGSSTWVFGGGTKLTVL
# notes: as for B1
# B3: Antibody 669 Fab (Fab, V domains shown)
# VH: QVQLVQSGAEVKKPGASVRVSCKASGFTFTSYAMHWVRQAPGQRLEWMGWINAGNGHTKYSQKFQDRVAITRDTSATTVYMDLSSLRSEDTAVYYCTRDGFCTSTTCSDHYGMDVWGQGTTVTVSS
# VL: B2 VL with L48F, N54S, T55K, I62N, A66G, V77I, V87D, S91C
# notes: as for B1
# B4: Antibody 666 Fab (Fab, V domains shown)
# VH: QVQLVQSGAEVKKPGASVKVSCKASGYTFTNYAMHWVRQAPGQRLEWMGWINAGNGNTKYSQNFQGRVTITRDTSASTAYMELSSLRSEDTAVYYCARDEYYASGSYYDYYYYGMDVWGQGTTVTVTS
# VL: QSALTQPASVSGSPGQSITISCTGTSSDVGVYNYVSWFQQHPGKAPKLMIYNVSKRPSGVSNRFSGSKSGNTASLTISGLQAEDEADYYCCSYAGSSTWVFGGGTNLTVL
# notes: as for B1
# B5: CL-141766 (antibody, V domains shown)
# VH: B4 VH with N31S, N63K, R67G, E100N, A103D, T127S
# VL: B4 VL with I20F, V31S, Y34H, F38Y, N52D, N106K
# notes: human IgG1, HEK (Expi293F) culture supernatant
# B6: CL-141785 (antibody, V domains shown)
# VH: B3 VH with T30I, R44G, N55D, T97S, S104T
# VL: B4 VL with V31S, F38Y, L48F, N52D, N62D, N106K
# notes: as for B5
# B7: CL-141791 (antibody, V domains shown)
# VH: B1 VH with Y80H, S106T
# VL: B1 VL with I31V, N54S, I60V, D71N, A94V, K106N
# notes: as for B5
# B8: CL-141806 (antibody, V domains shown)
# VH: QVQLVQSGAEVKKPGASVKVSCKASGYTFTNYAIHWVRQAPGQRLEWMGWINAGNGNTKYSQKFQGRVTITRDTSASTAYMELSSLRSEDTAVYYCARDNFYGSGTYFSYFFYHMDVWGQGTTVTVSS
# VL: B4 VL with V31S, Y34H, F38Y, N52D, V60M, N62D, N106K
# notes: as for B5
# B9: CL-141772 (antibody, V domains shown)
# VH: QVQLVQSGAEVKKPGASVKVSCKASGFIFINYAMQWVRQAPGQRLEWMGWINAGNGYTKYSQKFQGRVTITRDISANTVYMELSSLRSEDTAVYYCARDGFCSTTTCSDHYGMDVWGQGTTVTVSS
# VL: B4 VL with V31G, F38Y, N52D, N62D, A82T, N106K
# notes: as for B5
# B10: CL-141792 (antibody, V domains shown)
# VH: QVQLVQSGAEVKKPGASVKVSCKASGYTFTSYAMHWVRQAPGQRLEWMGWINAGNGYTKYSQNFQGRVTITRDTSASTAYMELSSLRSEDTAVYYCARDNYFDSSVYDSSYYFYYGMDVWGQGTTVTVSS
# VL: B4 VL with V31S, Y34H, F38Y, N52D, N106K
# notes: as for B5
# B11: CL-141786 (antibody, V domains shown)
# VH: QVQLLQSGAEVKKPGASVKVSCKASGYTFTNYAMHWLRQAPGQRLEWMGWINAGNGYTKYSQKFQGRVTITRDTSATTAYMDLSSLRSEDTAVYYCARDNYYDSNVYNSYYFYGMDVWGQGTTVTVSS
# VL: B1 VL with A3V, D8A, S13P, N27S, I31N, G43D, D71N, A98T
# notes: as for B5
# B12: CL-141784 (antibody, V domains shown)
# VH: QVQLVQSGAEVKNPGASLKVSCKASGYTFTNYAMHWVRQAPGQRLEWMGWINAGNGYTKYSQTFQGRVTITRDTYASTAYMELSSLRSEDTAVYYCVRDEYYESGSSNYYYYGMDVWGQGTTVTVSS
# VL: B4 VL with V31S, Y34H, F38Y, N52D, K55T, N106K, L107M
# notes: as for B5
# B13: CL-141802 (antibody, V domains shown)
# VH: QVQLVQSGTEVKKPGASVKVSCKASGFTFSSYAMHWVRQAPGQRLEWMGWINAGNGNTKYSQKFQGRVTITRDTSASTAYMELSSLRSEDTAVYYCARDGYCSSTSCYGYYGMDVWGQGTTVTVSS
# VL: B2 VL with S31A, Y51S, N54S, T55K, I62N, A66G, G70D, S91C
# notes: as for B5
# B14: CL-141805 (antibody, V domains shown)
# VH: B4 VH
# VL: B4 VL
# notes: as for B5
# B15: CL-141790 (antibody, V domains shown)
# VH: QVQLVQSGAEVKRPGASVKISCKASGYTFTNYAIHWVRQAPGQRLEWMGWINAGNGYTKYSQKFQGRVTITRDTSATSAYLELYSLISEDTAVYYCVRDEYYDSGSSNYYYYGMDVWGQGTTVTVSS
# VL: B4 VL with V31N, Y34H, F38Y, G43D, N52D, N106K
# notes: as for B5
# B16: CL-141779 (antibody, V domains shown)
# VH: B4 VH with N31S, N63K, E100Q, A103D, S104I, G105L, S106T, Y107P, D109Y, T127S
# VL: B4 VL with V31G, F38Y, N52V, N106K
# notes: as for B5
# B17: CL-141783 (antibody, V domains shown)
# VH: QVQLVQSGAEVKKPGASVKLSCKASGYTFTNYAMHWVRQAPGQSLEWMGWINAGNGYTKYSQKFQGRVTITRDTSANTAYMDLSSLRSEDTAVYYCARDQYYDILKGYYNVDYYYGMDVWGQGTTVAVSS
# VL: B4 VL with V31S, Y34H, F38Y, N52D, N62D, A94V, N106K
# notes: as for B5
# B18: CL-141781 (antibody, V domains shown)
# VH: B1 VH with T30S, A97S, S106T
# VL: B1 VL with I31V, N54S, I60V, D71N, A94V, S96N
# notes: as for B5
# B19: CL-141789 (antibody, V domains shown)
# VH: B3 VH with A24T, M34I, H35Q, R44G, N55D, A69V, S104T
# VL: B4 VL with V31S, F38Y, A45V, L48F, Y51S, N52D, V60I, N62D, S96G, N106K
# notes: as for B5
# B20: CL-141776 (antibody, V domains shown)
# VH: B3 VH with K13N, R19K, S31N, V79A, D82E, T97S, T103S, S104T
# VL: B4 VL with V31G, F38Y, L48F, N52D, N106K
# notes: as for B5
# B21: CL-141769 (antibody, V domains shown)
# VH: B1 VH with V68F, M93V, S106T
# VL: B1 VL with I31V, N54S, I60V, D71N, A86S, A98T
# notes: as for B5
# B22: CL-141799 (antibody, V domains shown)
# VH: B2 VH
# VL: B2 VL with S31A, N33K, I62T
# notes: as for B5
# Biological target: T1, Recombinant CSP (Wellcome Trust Sanger Institute, FIG. 22), CSP ectodomain with BirA biotinylation tag, … (Plasmodium falciparum strain 3D7, UniProt Q7K740 19-376, biotinylated at the BirA substrate peptide)
# T1 construct: extracellular domain; Expressed in HEK293, 45 kDa; order of the tags is that of the legend, not confirmed; also called biotinylated recombinant CSP
# Test: SPR (ProteOn), biotinylated CSP on NLC chip, Fab as analyte, 25 C, 1:1 fit
# Protocol: The surface was then blocked using biocytin (Sigma Aldrich, cat No B1758) at 1 mg/mL to prevent non-specific interaction with the chip surface. […] The assay was carried out at 25° C., with an association step of 240 sec and a dissociation step of 900 sec. Buffer injection (0 nM) was used to double reference the sensorgrams. The analysis was carried out using the 1:1 binding model inherent to the Bio-Rad ProteOn's analysis software.
Molecule,Kd,koff,kon
B1,31.6 nM,0.00079 s⁻¹,25000 M⁻¹ s⁻¹
B2,12.5 nM,0.000473 s⁻¹,37900 M⁻¹ s⁻¹
B3,126 nM,0.00211 s⁻¹,16800 M⁻¹ s⁻¹
B4,52 nM,0.00249 s⁻¹,48000 M⁻¹ s⁻¹

# Biological target: Recombinant CSP (Wellcome Trust Sanger Institute, FIG. 22), CSP ectodomain with BirA biotinylation tag, biolinker and histidine tag (Plasmodium falciparum strain 3D7) (UniProt Q7K740)
# Test: SPR, 2A10 on anti-mouse capture surface, CSP as analyte, 25 C, 1:1 fit
Molecule,Kd,koff,kon
Mouse monoclonal antibody 2A10 (IgG2aK),0.04 nM,9.41e-05 s⁻¹,2.23e+06 M⁻¹ s⁻¹

# Biological target: T2, full CSP protein (analyte of Example 12) (Plasmodium falciparum (isolate 3D7), UniProt Q7K740 19-374)
# T2 construct: not shown: C-terminal tags
# Test: SPR, IgG1 from supernatant on anti-human IgG surface, CSP as analyte, 25 C, 1:1 fit
row,Molecule,kon
1,B5,528000 M⁻¹ s⁻¹
2,B6,573000 M⁻¹ s⁻¹
3,B7,253000 M⁻¹ s⁻¹
4,B8,284000 M⁻¹ s⁻¹
5,B9,338000 M⁻¹ s⁻¹
6,B10,51300 M⁻¹ s⁻¹
7,B11,457000 M⁻¹ s⁻¹
8,B12,541000 M⁻¹ s⁻¹
9,B13,313000 M⁻¹ s⁻¹
10,B14,1.19e+06 M⁻¹ s⁻¹
11,B15,428000 M⁻¹ s⁻¹
12,B16,298000 M⁻¹ s⁻¹
13,B17,128000 M⁻¹ s⁻¹
14,B18,221000 M⁻¹ s⁻¹
15,B19,293000 M⁻¹ s⁻¹
16,B20,143000 M⁻¹ s⁻¹
17,B21,156000 M⁻¹ s⁻¹
18,B22,486000 M⁻¹ s⁻¹
